Patent CN110305214A

B1: W3452-2.683.2-z27-IgG1L (antibody, V domains shown)
VH: EVQLVESGGGLVQPGRSLRLSCAASGFTFSTYGMAWVRQAPGKGLEWVSSISTSGGSTYYRDSVQGRFTISRDNAKSSLYLQMNSLRAEDTATYYCTTKGGRTYRLAYWGQGTLVTVSS
VL: SYELMQPPSVSVSPGQTARITCSGIELSNKYAHWYQQKPGQAPVEVMYKDSERPSGIPERFSGSRSGTTVTLTISGVQAEDEADYYCLSTNSDDDLPVFGGGTKLTVL
B2: W3452-2.683.2-z27-IgG4PE,L (antibody, V domains shown)
VH: B1 VH
VL: B1 VL
B3: W3452-1.164.16-z11-IgG1K (antibody, V domains shown)
VH: QVQLQESGPGLVKPSETLSLTCTVSGFSLTNYHVYWIRQPPGKGLEWIGVMWNHGDTSYNSPLKSRVTISVDTSKSQFSLKLSSVTAADTAVYYCARGGYVPDYWGQGTMVTVSS
VL: DIVMTQSPLSLPVTPGEPASISCRSSQSLVHSNAKTYLHWYLQKPGQSPQLLIYRVSNRFSGVPDRFSGSGSGTDFTLKISRVEAEDVGVYYCLQTTHFPYTFGQGTKLEIK

target: 人CD47 (human CD47) (human) (UniProt Q08722); experiment: FACS competition on CHOK1 cells stably transfected with human CD47; competitor 1 μg/ml human SIRPα-His
UniProt Q08722, sequence (Q08722 19-323): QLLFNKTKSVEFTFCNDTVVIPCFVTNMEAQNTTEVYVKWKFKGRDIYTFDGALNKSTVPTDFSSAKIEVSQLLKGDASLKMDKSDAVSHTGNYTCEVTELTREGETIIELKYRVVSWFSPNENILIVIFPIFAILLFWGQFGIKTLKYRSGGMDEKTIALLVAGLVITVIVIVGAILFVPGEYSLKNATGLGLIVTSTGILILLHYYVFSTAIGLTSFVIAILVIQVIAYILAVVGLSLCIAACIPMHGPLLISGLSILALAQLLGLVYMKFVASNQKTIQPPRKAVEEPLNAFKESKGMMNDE

阻断率, > 90%:
B1
B2
B3
